Measurements taken from publication PMC3522052, “Association of HLA-DR1 with the allergic response to the major mugwort pollen allergen: molecular background” (BMC Immunology, 2012).

Legend:
[1] = molecular target: T1, HLA-DRB1*01:01 (Homo sapiens, UniProt P01903+P01911, A100R/D57E/F55L/F60I/F76Y/I96L/L162R/M171V/P40L/Q125E/R42F/V115G/Y59C); test: Peptide/MHC-binding assay, competitive ELISA against biotinylated HA306-318; details: for ratio of IC50 of Art v 1-peptides/HA306-318, HLA-DR1: relative binding activity, competitive ELISA, pH 6.0, 24 h at 37°C, two independent experiments; for binding to DR1 molecules, in words: competition with HA306-318, stated for DR1 or DR4
T1 construct: endogenous in cells
Description: (§1) HLA-DRB1*01:01 and -DRB1*04:01 molecules were purified from homozygous EBV cells by affinity chromatography using mAb L243 as described before. Peptide binding to HLA-DR molecules was assessed by competitive ELISA. Dilutions were prepared in 10 mM phosphate, 150 mM NaCl, […], 10 mM citrate (pH = 6.0). […] After 24 hours of incubation at 37°C, peptide/MHC-class II complexes were added to 96 well plates coated with L243 antibody and incubated at RT for 2 hours. Bound biotinylated peptides were detected by Streptavidin-alkaline phosphatase conjugate (GE healthcare, Saclay, France) and 4-methyl-umbelliferyl phosphate (Sigma-Aldrich, St. Quentin Fallavier, France) as substrate. Emitted fluorescence was measured at 450 nm upon excitation at 365 nm by a Gemini fluorometer (Molecular probes, St Grégoire, France). […] Two independent experiments were performed to evaluate competitive binding.

[2] = molecular target: T2, HLA-DRB1*04:01 (Homo sapiens, UniProt P01903+P01911, A100K/A169T/F76Y/I96L/K127E/L162R/M171V/N62H/P40V/Q125Y/R42H/S133A/S149N/S66Y/V115G/V209L/W38E); test: as above; details: for ratio of IC50 of Art v 1-peptides/HA306-318, HLA-DR4: relative binding activity, competitive ELISA, pH 6.0, 24 h at 37°C, two independent experiments; for binding to DR4 molecules, in words: competition with HA306-318, stated for DR1 or DR4
T2 construct: endogenous in cells
Description: as §1

[3] = molecular target: HLA-DRB1*01:01 molecules (human (endogenous in homozygous EBV cells)); test: ELISA
[4] = molecular target: HLA-DRB1*04:01 molecules (human (endogenous in homozygous EBV cells)); test: ELISA
[5] = system: Art v 1_25-36-specific TCL and TCC with HLA-DR1-expressing APC; format: cell-based, human
Description: (§2) TCL or TCC (5 × 10^4 cells) were stimulated for 3 days with irradiated (60 Gy) APC and peptides at an optimum concentration of 3 μM, if not indicated otherwise. Proliferation was assessed by ^3H-thymidine uptake within the last 16 hours of incubation.

[6] = system: Art v 1_25-36-specific TCL and TCC with HLA-DR4-expressing APC; format: cell-based, human
Description: as §2

[7] = text statement for both HLA molecules

| Molecule | ratio of IC50 of Art v 1-peptides/HA306-318, HLA-DR1 [1] | ratio of IC50 of Art v 1-peptides/HA306-318, HLA-DR4 [2] | other [3] | other [4] | other results |
| --- | --- | --- | --- | --- | --- |
| KCIEWEKGQHGA [Gly-32, mono-substituted peptide of Art v 1_25-36] | 63 | 149 |  |  |  |
| KCIEWEKAQHAA [Ala-35, mono-substituted peptide of Art v 1_25-36] | 5 | 5 |  |  |  |
| KCIAWEKAQHGA [Ala-28, mono-substituted peptide of Art v 1_25-36] | 6 | 11 |  |  |  |
| Art v 1_(25-36) (peptide) |  |  | 14 | 15 |  |
| Art v 1_(22-33) (peptide) |  |  | 2020 | 756 |  |
| Art v 1_(25-36) Ala-26 (peptide) |  |  | 16 | 3 |  |
| KCIEWAKAQHGA [Ala-30, mono-substituted peptide of Art v 1_25-36] | 6 | 28 |  |  |  |
| KAIEWEKAGHGA [Ala-26, mono-substituted peptide of Art v 1_25-36] | 16 | 3 |  |  |  |
| KCIEWEAAQHGA [Ala-31, mono-substituted peptide of Art v 1_25-36] | 17 | 17 |  |  |  |
| NKKCDKKCIEWE [Art v 1_19–30] | >55032 | >926 |  |  | binding to DR1 molecules, in words [1]: negligible; binding to DR4 molecules, in words [2]: negligible |
| KCIEWEKAQHGA [Art v 1_25-36] | 14 | 15 |  |  | binding less than HA306-318, HLA-DR1 [1, 7]: 15 fold; binding less than HA306-318, HLA-DR4 [2, 7]: 15 fold; median proliferation of TCC, DR1 [5]: 36,640 dpm; median proliferation of TCL, DR1 [5]: 31,630 dpm; TCC that did not respond to presentation by DR4 [6]: 18%; TCC that recognized the peptide presented by DR4 [6]: 82%; median proliferation of TCC, DR4 [6]: 24,125 dpm; median proliferation of TCL, DR4 [6]: 25,985 dpm |
| CDKKCIEWEKAQ [Art v 1_22-33] | 2016 | 756 |  |  | binding to DR1 molecules, in words [1]: weak; binding to DR4 molecules, in words [2]: weak |
| KCIEWEKAQAGA [Ala-34, mono-substituted peptide of Art v 1_25-36] | 8 | 17 |  |  |  |
| KCAEWEKAQHGA [Ala-27, mono-substituted peptide of Art v 1_25-36] | 2596 | >926 |  |  |  |
| KCIEWEKGQHGA [Art v 1_(25-36) Gly-32] |  |  | 63 | 149 |  |
| KCAEWEKAQHGA [Art v 1_(25-36) Ala-27] |  |  | 2600 |  |  |
| KCIEWEAAQHGA [Art v 1_(25-36) Ala-31] |  |  | 17 | 17 |  |
| KCIEWEKAQAGA [Art v 1_(25-36) Ala-34] |  |  | 8 | 17 |  |
| KCIEWEKAQHAA [Art v 1_(25-36) Ala-35] |  |  | 5 | 5 |  |
| KCIEWAKAQHGA [Art v 1_(25-36) Ala-30] |  |  | 6 | 28 |  |
| KCIAWEKAQHGA [Art v 1_(25-36) Ala-28] |  |  | 6 | 11 |  |
